Results reported in PMC6521355, “Enzymatic Conversion of RBCs by α-N-Acetylgalactosaminidase from Spirosoma linguale” (Enzyme Research, 2019).
One block for each molecule: values may come before it.

Experiments:
[1] = target: T1, S. linguale α-NAGA (SlNAGA) (Spirosoma linguale, UniProt D2QUW2); assay: Product inhibition of 4-nitrophenyl substrate hydrolysis, absorbance at […] nm, competitive model fit; assay type: biochemical; details: 20 mM sodium phosphate pH 7.0, ~22 °C
T1 construct: gene Slin_6637; E. coli BL21(DE3); monomer 48215 Da calculated, 96 kDa dimer; primers encode N-term MPSLYTTAQ and C-term PIFGLTDVY
T1 sequence (D2QUW2 1-435): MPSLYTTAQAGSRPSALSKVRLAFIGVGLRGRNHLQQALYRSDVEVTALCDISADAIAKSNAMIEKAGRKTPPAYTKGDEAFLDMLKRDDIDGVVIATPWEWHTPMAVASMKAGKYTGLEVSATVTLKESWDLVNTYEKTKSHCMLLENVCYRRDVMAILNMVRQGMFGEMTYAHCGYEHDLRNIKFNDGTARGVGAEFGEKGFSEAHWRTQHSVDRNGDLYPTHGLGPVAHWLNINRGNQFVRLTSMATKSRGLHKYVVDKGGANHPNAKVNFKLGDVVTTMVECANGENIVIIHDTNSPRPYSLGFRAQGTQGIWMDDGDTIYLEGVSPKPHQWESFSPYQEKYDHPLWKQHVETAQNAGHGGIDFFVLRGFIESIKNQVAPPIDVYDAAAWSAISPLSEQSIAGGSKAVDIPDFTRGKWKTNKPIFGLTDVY

[2] = target: Spirosoma linguale α-N-acetylgalactosaminidase (Spirosoma linguale); assay: SEC; analytical gel filtration of the tag-free purified enzyme, Zorbax GF-250 column, 30°C, TBS (50 mM Tris 150 mM NaCl) pH 7.4, 1.0 mL/min; mass from Ve/Vo against five protein standards
[3] = substrate: CC(=O)N[C@H]1[C@@H](Oc2ccc([N+](=O)[O-])cc2)O[C@H](CO)[C@H](O)[C@@H]1O; assay: purified protein; assay type: biochemical, Spirosoma linguale; details: 20 mM sodium phosphate pH 7.4, 25 °C

Ki [1]: 180 ± 24 µM
Molecule: CC(=O)N[C@H]1C(O)O[C@H](CO)[C@H](O)[C@@H]1O (some centres unmarked) [N-acetylgalactosamine]

stoichiometry N [2]: 2
Molecule: Spirosoma linguale α-N-acetylgalactosaminidase (enzyme)

B1: S. linguale α-NAGA (SlNAGA) (Spirosoma linguale DSM 74) (protein)
chain: T1 sequence (D2QUW2 1-435)
notes: E. coli BL21(DE3); monomer 48215 Da calculated, 96 kDa dimer; primers encode N-term MPSLYTTAQ and C-term PIFGLTDVY
Km [3]: 1070 ± 70 µM
kcat [3]: 173 s⁻¹
kcat/Km [3]: 163000 M⁻¹ s⁻¹
